Data as given in the supplement of paper PMC9170038.

Tested on: MS2 coat protein
Assay: apparent KD of MS2 coat protein; designed switch direction (-1 OFF switch, 1 ON switch): 1; higher = weaker reporter binding
In short: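 Three titration conditions were used: no input, 200 uM small-molecule ligand, and an oligonucleotide input. In each, SNAP-549-labelled MS2 coat protein was raised from 0.7 or 1.5 nM, doubling, to 3 µM over designed RNA switches transcribed on Illumina chips by stalled E. coli RNA polymerase. Curve fits of normalised cluster fluorescence gave values whose per-design median over clusters is the apparent KD.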

[1] = Eterna round: R95, input ligand: FMN 200 uM
[2] = Eterna round: R95, input ligand: microRNA oligo, concentration not stated
[3] = Eterna round: R95, input ligand: none
[4] = input ligand: microRNA oligo, concentration not stated

AUAAAACAUGAGGAUCACCCAUGUCAACAAAGUCGAGGAUAUGGGCAAAUAAUAUAAGAACCAGAAGGCGAAUAAU [salish99_ss1_r3_022] (puzzle: Same State 1)
apparent KD of MS2 coat protein [1]: 36.6 nM
apparent KD of MS2 coat protein [2]: 207 nM
apparent KD of MS2 coat protein [3]: 191 nM

AUAAGUCCGAUGCUCGUCUCUCCGUACAAACAUGAGGAUCACCCAUGUGAUCGGGCAGUAGCCCGAUCAGUAUGGCC [Raedre] (puzzle: Sensor for hsa-mir-208a)
apparent KD of MS2 coat protein [1]: 51.5 nM
apparent KD of MS2 coat protein [2]: 23.9 nM
apparent KD of MS2 coat protein [3]: 56.4 nM

AUACAUGAGGAUCACCCAUGUAAUUAAUUAAUUAAUAAGAUCAAGGAUAUCAGCUCGAAUAGAGCUGAGAAGGUGAUCACAUGU [SSNG3/21-D1] (Eterna round: R96, puzzle: Same State NG 3)
apparent KD of MS2 coat protein [4]: 177 nM

AUACAUGAGGAUCACCCAUGUAAUUAAUUAAUUAAUAAGAUCAAGGAUAUCAGCUCGAUUAGAGCUGAGAAGGUGAUCACAUGU [SSNG3/21-D2] (Eterna round: R96, puzzle: Same State NG 3)
apparent KD of MS2 coat protein [4]: 272 nM

AUAGUUGCCGAAGGAUAUGAUGAGGAUCACCCAUCAGAAGGUUGGCUAUUGGGUGGACAUGAGGAUCACCCAUGUCCUUUGGUU (Eterna round: R96, puzzle: Same State NG 1)
apparent KD of MS2 coat protein (input ligand: FMN 200 uM): 58.2 nM
apparent KD of MS2 coat protein [4]: 68.9 nM
apparent KD of MS2 coat protein (input ligand: none): 113 nM

AUAGUUUCCGAAGGAUAUGAUGAGGAUCACCCAUCAGAAGGUUGGCUAUUGGGCGGACAUGAGGAUCACCCAUGUCUUUCGGUU (Eterna round: R96, puzzle: Same State NG 1)
apparent KD of MS2 coat protein (input ligand: FMN 200 uM): 84.7 nM
apparent KD of MS2 coat protein [4]: 76.8 nM
apparent KD of MS2 coat protein (input ligand: none): 101 nM

AUAGUUUCCGAAGGAUAUGAUGAGGAUCACCCAUCAGAAGGUUGGCUAUUGGGCUGACAUGAGGAUCACCCAUGUUCUGGAGUU (Eterna round: R96, puzzle: Same State NG 1)
apparent KD of MS2 coat protein (input ligand: FMN 200 uM): 39.8 nM
apparent KD of MS2 coat protein [4]: 39.5 nM
apparent KD of MS2 coat protein (input ligand: none): 64.5 nM

AUCAAAACAAGUUGCAGUGUUCGUCUUUCACAUGAGGAUCACCCAUGUAAUAGCCCAGUGGAAGCGCUCAGGCCACC [Usbi] (puzzle: Sensor for hsa-mir-208a)
apparent KD of MS2 coat protein [1]: 225 nM
apparent KD of MS2 coat protein [2]: 57.7 nM
apparent KD of MS2 coat protein [3]: 210 nM

AUCCUACAUGAGGAUCACCCAUGUGACGCCUCGAUAGGAUAUGCGUGUGCCUUGGCGCAUGCAGAAGGAUUGGAGC [JL Aveso mod 5] (puzzle: Same State 1)
apparent KD of MS2 coat protein [1]: 88.4 nM
apparent KD of MS2 coat protein [2]: 72.6 nM
apparent KD of MS2 coat protein [3]: 78.5 nM

AUGAAGAAUUAAGGAUAUUGAAUACAUAUGUUUAACAUGAGGAUCACCCAUGUGGGUUGCGGUAUCGAGAAGGUAAAUUAAUAG [Mat - same State NG 2 - JL mod - D90] (Eterna round: R96, puzzle: Same State NG 2)
apparent KD of MS2 coat protein (input ligand: FMN 200 uM): 142 nM
apparent KD of MS2 coat protein [4]: 156 nM
apparent KD of MS2 coat protein (input ligand: none): 143 nM

AUGAAUUUGCGAGGAUAUCGUUUGUUGAAGUUACGAGAAGGCGCUCACUUUACAUGAGGAUCACCCAUGUUUAUGUUUUAUGAU [JR_SSNG1_Sub075] (Eterna round: R96, puzzle: Same State NG 1)
apparent KD of MS2 coat protein (input ligand: FMN 200 uM): 22 nM
apparent KD of MS2 coat protein [4]: 21.6 nM
apparent KD of MS2 coat protein (input ligand: none): 31.1 nM

AUGAUUUAUGCAGGAUAUGAUUAACAUGAGGAUCACCCAUGUGGUGUUGUGAGUAAGGAGAGUGAUCAGAAGGGCAUUUUUUUU [JMF's solution 71] (Eterna round: R96, puzzle: Same State NG 2)
apparent KD of MS2 coat protein (input ligand: FMN 200 uM): 1170 nM
apparent KD of MS2 coat protein [4]: 402 nM
apparent KD of MS2 coat protein (input ligand: none): 506 nM

AUGCCAAAUCGAGGAUAUGGAGCCUUAUUGGCUCCAGAAGGUGAGACAUGAGGAUCACCCAUGUGGCAGUGGUCUAAUGACCAC [Fiskers NG1ss - 32] (Eterna round: R96, puzzle: Same State NG 1)
apparent KD of MS2 coat protein (input ligand: FMN 200 uM): 174 nM
apparent KD of MS2 coat protein [4]: 270 nM
apparent KD of MS2 coat protein (input ligand: none): 581 nM

AUUAAACAUGAGGAUCACCCAUGUCAACAAAGUCGAGGAUAUGGGCAAAUAAAAUAAGAACCAGAAGGCGAAUUAU [salish99_ss1_r3_079] (puzzle: Same State 1)
apparent KD of MS2 coat protein [1]: 32.6 nM
apparent KD of MS2 coat protein [2]: 337 nM
apparent KD of MS2 coat protein [3]: 312 nM

AUUAAACAUGAGGAUCACCCAUGUCAACAAAGUCGAGGAUAUGGGCAAAUAUUAUAAUAACCAGAAGGCGAAUAAU [salish99_ss1_r3_082] (puzzle: Same State 1)
apparent KD of MS2 coat protein [1]: 27.4 nM
apparent KD of MS2 coat protein [2]: 212 nM
apparent KD of MS2 coat protein [3]: 149 nM

AUUAAUAAUCGAGGAUAUCACGUCGAUUAGACGUGAGAAGGCGAUCAUAACAUGAGGAUCACCCAUGUAUUACAUGAAGUUAAU [SSNG1/4-B2] (Eterna round: R96, puzzle: Same State NG 1)
apparent KD of MS2 coat protein (input ligand: FMN 200 uM): 25.3 nM
apparent KD of MS2 coat protein [4]: 23.7 nM
apparent KD of MS2 coat protein (input ligand: none): 28.2 nM

AUUAUUAAUGCAGGAUAUGAUUAACAUGAGGAUCACCCAUGUGGUGUUGUGAGUAAGGAGAGUGAUCAGAAGGGCAUUUUUGUU [JMF's solution 14] (Eterna round: R96, puzzle: Same State NG 2)
apparent KD of MS2 coat protein (input ligand: FMN 200 uM): 811 nM
apparent KD of MS2 coat protein [4]: 330 nM
apparent KD of MS2 coat protein (input ligand: none): 629 nM

AUUAUUAAUGCAGGAUAUGAUUAACAUGAGGAUCACCCAUGUGGUGUUGUGAGUAAGGAGAGUGAUCAGAAGGGCAUUUUUUUG [JMF's solution 19] (Eterna round: R96, puzzle: Same State NG 2)
apparent KD of MS2 coat protein (input ligand: FMN 200 uM): 420 nM
apparent KD of MS2 coat protein [4]: 423 nM
apparent KD of MS2 coat protein (input ligand: none): 452 nM

AUUCUUAAUGCAGGAUAUGAUUAACAUGAGGAUCACCCAUGUGGUGUUGUGAGUAAGGAGAGUGAUCAGAAGGGCAUUUUUUUU [JMF's solution 32] (Eterna round: R96, puzzle: Same State NG 2)
apparent KD of MS2 coat protein (input ligand: FMN 200 uM): 316 nM
apparent KD of MS2 coat protein [4]: 271 nM
apparent KD of MS2 coat protein (input ligand: none): 210 nM

AUUGCUUUCGCAGGAUAUGAUGCGAAAAUUGCGUCAGAAGGGUGGAGUAUCUCAUUGCAAGAGGACAUGAGGAUCACCCAUGUC [SameState NG1 #87] (Eterna round: R96, puzzle: Same State NG 1)
apparent KD of MS2 coat protein (input ligand: FMN 200 uM): 40.5 nM
apparent KD of MS2 coat protein [4]: 140 nM
apparent KD of MS2 coat protein (input ligand: none): 216 nM

AUUUUUGAUGCAGGAUAUGAUUAACAUGAGGAUCACCCAUGUGGUGUUGUGAGUAAGGAGAGUGAUCAGAAGGGCAUUUUUUUU [JMF's solution 93] (Eterna round: R96, puzzle: Same State NG 2)
apparent KD of MS2 coat protein (input ligand: FMN 200 uM): 810 nM
apparent KD of MS2 coat protein [4]: 269 nM
apparent KD of MS2 coat protein (input ligand: none): 365 nM

CAAGCUUGGGUCGUCCCGCUCGUCUUCAAACAUGAGGAUCACCCAUGUAUACUCUUCACAUCAAUUCUAUCUCUUAA [Ralasoerin] (puzzle: Sensor for hsa-mir-208a)
apparent KD of MS2 coat protein [1]: 255 nM
apparent KD of MS2 coat protein [2]: 22.8 nM
apparent KD of MS2 coat protein [3]: 289 nM

CAAGUACAUGAGGAUCACCCAUGUGGAAGAGAUGCAGGAUAUGUGGGAGAAGGGAGUGUAACAGAAGGGCAAGGAG [JR_SS!_Sub019] (puzzle: Same State 1)
apparent KD of MS2 coat protein [1]: 113 nM
apparent KD of MS2 coat protein [2]: 71.8 nM
apparent KD of MS2 coat protein [3]: 109 nM

CAGCGCUGUCGAGAGGAUAUGCUGUGAUGGACAUGAGGAUCACCCAUGUUAGCGAUAGCAUUACUGUAGAAGGCUCUACAGCUGC [Soteed - 15] (puzzle: Same State 2)
apparent KD of MS2 coat protein [2]: 10.9 nM

CAGCGCUGUCGAGAGGAUAUGUGGUGAUGGACAUGAGGAUCACCCAUGUUAGCGACAGUAUCACGGCAGAAGGCUCUACCGCUGC [Soteed Omei mod 31] (puzzle: Same State 2)
apparent KD of MS2 coat protein [1]: 56.1 nM
apparent KD of MS2 coat protein [2]: 38.1 nM
apparent KD of MS2 coat protein [3]: 44 nM

CAGUAUCGCGGAGGAUAUGGGCUGAGACCGGAGCAACUCUGGUCAACAUGAGGAUCACCCAUGUCCCAGAAGGCCGCGAUGCUG [Enquoninso] (Eterna round: R96, puzzle: Same State NG 2)
apparent KD of MS2 coat protein (input ligand: FMN 200 uM): 18.4 nM
apparent KD of MS2 coat protein [4]: 62.2 nM
apparent KD of MS2 coat protein (input ligand: none): 96.1 nM

CAUCCCUCCACAGGAUAUCGACCAAUAAAACGGCGAGAAGGGUGGCCACAUGAGGAUCACCCAUGUGGAAUUGGAUGAACUACC [Atusmaceor] (Eterna round: R96, puzzle: Same State NG 1)
apparent KD of MS2 coat protein (input ligand: FMN 200 uM): 141 nM
apparent KD of MS2 coat protein [4]: 120 nM
apparent KD of MS2 coat protein (input ligand: none): 77 nM

CCAACAUACAAUUUAAGAUCACAUGAGGAUCACCCAUGUAUGCAGGAUAUCAGCUCGUUUAGAGCUGAGAAGGGCAAUUUAAUU [SSNG3/1-A3] (Eterna round: R96, puzzle: Same State NG 3)
apparent KD of MS2 coat protein (input ligand: FMN 200 uM): 99 nM
apparent KD of MS2 coat protein [4]: 158 nM
apparent KD of MS2 coat protein (input ligand: none): 202 nM

CCAUAACUGUGAGGAUAUUGUUGCGUUUAGUGACGAGAAGGCAUUCAUGUGAUAUAUACAUACAUGAGGAUCACCCAUGUUGUA [NG 1 30P] (Eterna round: R96, puzzle: Same State NG 1)
apparent KD of MS2 coat protein [4]: 21.4 nM

CCAUAGUACAAUUUAGAUCUACAUGAGGAUCACCCAUGUACUGAGGAUAUCAGCUCGAAUAGAGCUGAGAAGGCAGAAUUAAUU [SSNG3/5-A1] (Eterna round: R96, puzzle: Same State NG 3)
apparent KD of MS2 coat protein [4]: 103 nM

CCCGCGUUUCGCGCCUACAUGAGGAUCACCCAUGUUUGUAGGCAGGAUAUCGUCCGCUCUGCGGGCGAGAAGGGCUGUCGUGGU [salish99_SSNG3_R04_030] (Eterna round: R96, puzzle: Same State NG 3)
apparent KD of MS2 coat protein (input ligand: FMN 200 uM): 65.7 nM
apparent KD of MS2 coat protein [4]: 53.5 nM
apparent KD of MS2 coat protein (input ligand: none): 70.1 nM

CCCUGAGGCAGCCUACAGGGACAUGAGGAUCACCCAUGUACACAGGAUAUCGAGGGCUCCGCCCUCGAGAAGGGUGAUCAGACU [Redied] (Eterna round: R96, puzzle: Same State NG 3)
apparent KD of MS2 coat protein (input ligand: FMN 200 uM): 321 nM
apparent KD of MS2 coat protein [4]: 161 nM
apparent KD of MS2 coat protein (input ligand: none): 97.4 nM
